The numbers were not newly measured in article PMC2652713, “Molecular Blocking of CD23 Supports Its Role in the Pathogenesis of Arthritis” (PLoS ONE, 2009), which cites them from elsewhere.

This data set concerns human macrophages and epithelial cells. From the text: Authors reported overexpression of membrane bound and sCD23 during acute juvenile or adult arthritis, with a clear pro-inflammatory property in this form. In the present study, we report similar observations in peripheral and synovial liquid monocytes/macrophages from adult arthritic patients (Figure 5).

B1: IL-10: a well-known immunoregulator and Th-1 inhibitor cytokine (protein, UniProt P22301 19-178, looked up)
Interleukin-10: SPGQGTQSENSCTHFPGNLPNMLRDLRDAFSRVKTFFQMKDQLDNLLLKESLLEDFKGYLGCQALSEMIQFYLEEVMPQAENQDPDIKAHVNSLGENLKTLRLRLRRCHRFLPCENKSKAVEQVKNAFNKLQEKGIYKAMSEFDIFINYIEAYMTMKIRN
Turning to B1, the “CD23-mediated TNF-α production” value was “decreased” and the “CD23-mediated nitric oxide production” value was “decreased”.
